Substrate: CC(=O)N[C@H]1[C@H](Oc2ccc3c(C)cc(=O)oc3c2)O[C@H](CO)[C@@H](O[C@@H]2O[C@H](CO)[C@@H](O[C@@H]3O[C@H](CO)[C@@H](O)[C@H](O)[C@H]3NC(C)=O)[C@H](O)[C@H]2NC(C)=O)[C@@H]1O
Test: fluorometric 4-methylumbelliferone release, nonlinear regression
Type: biochemical, Trichoderma asperellum
Settings: 50 mM sodium acetate, pH 4.5, 40 °C, 5-70 µM substrate
Excerpt: fluorometric 4-methylumbelliferone release, nonlinear regression on Chit36-TA

B1: Chit36-TA (Trichoderma asperellum CBS 433.97) (protein)
chain: QNATCALKGKPAGKVLMGYWENWDGAANGVHPGFGWTPIENPIIKQNGYNVINAAFPVILSDGTALWENDMAPDTQVATPAEMCEAKAAGATILLSIGGATAGIDLSSSAVADKFIATIVPILKQYNFDGIDIDIETGLTNSGNINTLSTSQTNLIRIIDGVLAQMPSNFGLTMAPETAYVTGGSITYGSIWGAYLPIIQKYVQNGRLWWLNMQYYNGDMYGCSGDSYAAGTVQGFIAQTDCLNAGLTIQGTTIKVPYDMQVPGLPAQSGAGGGYMNPSLVGQAWDHYNGALKGLMTWSINWDGAGNWTFGDNLLTRIG
notes: mature protein without native signal peptide, C-terminal His6 (kept), codon-optimized synthetic gene, secreted from Komagataella phaffii BG10, Ni-NTA purified, N-glycosylated (43 kDa)
- Km: 289 µM
- Vmax: 3 µmol/min/mg
